For this experiment, the target named is T1, 重组人ATP5B (rhATP5B) (human, UniProt P06576 48-529).
T1 construct: mature; Mr about 55 000; also called rhATP5B蛋白; rhATP5B抗原; not shown: His-tag and vector-derived residues of pET28a(+) (insert cloned SacI/HindIII)
The experiment in a line: ELISA on culture supernatant of CHO-DG44 transfectants. A general note: ELISA stands for enzyme-linked immunosorbent assay.

T1 sequence (P06576 48-529): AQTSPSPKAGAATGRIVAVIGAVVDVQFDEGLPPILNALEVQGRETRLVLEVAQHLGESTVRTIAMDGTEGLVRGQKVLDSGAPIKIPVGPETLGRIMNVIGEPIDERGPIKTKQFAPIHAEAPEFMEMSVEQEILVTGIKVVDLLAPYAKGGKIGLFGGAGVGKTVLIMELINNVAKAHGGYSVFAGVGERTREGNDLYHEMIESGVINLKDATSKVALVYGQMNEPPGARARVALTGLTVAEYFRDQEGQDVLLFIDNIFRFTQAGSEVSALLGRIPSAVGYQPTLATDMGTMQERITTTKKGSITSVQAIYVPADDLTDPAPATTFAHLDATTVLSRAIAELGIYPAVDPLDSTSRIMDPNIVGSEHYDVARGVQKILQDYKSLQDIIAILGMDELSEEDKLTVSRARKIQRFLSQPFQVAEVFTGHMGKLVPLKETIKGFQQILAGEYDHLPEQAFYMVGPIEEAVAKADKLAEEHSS

B1: 抗ATP5B人鼠嵌合抗体c7A8 (antibody, human IgG1, kappa, V domains shown)
VH: EVQLLESGAELVKPGASVKLSCTASGFNIKDAYMYWVRQRPEQGLEWIGRIDPANDNTKYDPKFQGRATITADTSSNTAYLQLSSLTSEDTAVHYCARFYSVYAMDYWGQGTSVTVSS
VL: TQSPAIMSASPGEKVTITCSASSSVSYMHWFQQQPGTSPKLWVYTTSNLAFGVPARFSGSGPGTSYSLTISRMEAEDAATYYCQQRSSYPLTFGAGTKLELTR
notes: Chimeric IgG1/kappa: signal peptide and variable region of m7A8 joined to human IgG1 constant regions; tested as culture supernatant of transfected CHO-DG44 clone E1; also called 血管抑素受体β亚基人源化嵌合抗体; 人源化嵌合抗体
For B1, the binding result is “binds”.
